The values that follow come from patent US20240199695A1 (TRANSFERT PLUS S E C, published 2024).

Test [1] addresses T1, sortilin expressed on cancer cells (SKOV3, ES-2 ovarian cancer cells) (UniProt Q99523 78-831, limits assumed).
T1 sequence (looked up): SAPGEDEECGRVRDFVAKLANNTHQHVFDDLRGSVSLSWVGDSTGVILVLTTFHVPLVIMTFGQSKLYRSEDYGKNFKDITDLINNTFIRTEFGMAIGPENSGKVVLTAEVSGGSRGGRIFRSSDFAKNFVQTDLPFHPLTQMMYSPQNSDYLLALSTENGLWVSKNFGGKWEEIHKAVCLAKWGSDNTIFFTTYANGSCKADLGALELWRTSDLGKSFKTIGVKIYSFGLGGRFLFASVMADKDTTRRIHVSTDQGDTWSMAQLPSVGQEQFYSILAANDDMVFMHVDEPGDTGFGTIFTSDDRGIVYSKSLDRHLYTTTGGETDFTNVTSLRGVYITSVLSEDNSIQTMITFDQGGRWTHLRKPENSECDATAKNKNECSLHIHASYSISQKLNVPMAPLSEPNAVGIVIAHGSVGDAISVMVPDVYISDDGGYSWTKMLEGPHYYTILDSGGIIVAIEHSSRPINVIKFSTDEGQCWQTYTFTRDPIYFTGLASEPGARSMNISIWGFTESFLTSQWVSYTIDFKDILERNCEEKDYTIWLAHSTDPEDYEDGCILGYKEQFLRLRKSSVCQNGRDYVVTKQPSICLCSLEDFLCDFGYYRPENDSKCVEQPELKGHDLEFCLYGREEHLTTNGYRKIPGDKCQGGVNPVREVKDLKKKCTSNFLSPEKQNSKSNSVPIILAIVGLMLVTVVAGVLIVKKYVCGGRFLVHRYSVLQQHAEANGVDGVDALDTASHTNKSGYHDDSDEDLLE

The target of test [2] is T1, sortilin expressed on cancer cells …. This is another data set of the same source.
For test [3] the target is unchanged. This is another data set of the same source.
Test [4] has the same target. This is another data set of the same source.
For test [5] the target is unchanged. As to the kind of experiment: cell-based or functional assay.
In another test the target is T2, soluble form of sortilin (UniProt Q99523 78-755, limits assumed).
T2 construct: also called soluble sortilin; receptor sortilin
T2 sequence (looked up): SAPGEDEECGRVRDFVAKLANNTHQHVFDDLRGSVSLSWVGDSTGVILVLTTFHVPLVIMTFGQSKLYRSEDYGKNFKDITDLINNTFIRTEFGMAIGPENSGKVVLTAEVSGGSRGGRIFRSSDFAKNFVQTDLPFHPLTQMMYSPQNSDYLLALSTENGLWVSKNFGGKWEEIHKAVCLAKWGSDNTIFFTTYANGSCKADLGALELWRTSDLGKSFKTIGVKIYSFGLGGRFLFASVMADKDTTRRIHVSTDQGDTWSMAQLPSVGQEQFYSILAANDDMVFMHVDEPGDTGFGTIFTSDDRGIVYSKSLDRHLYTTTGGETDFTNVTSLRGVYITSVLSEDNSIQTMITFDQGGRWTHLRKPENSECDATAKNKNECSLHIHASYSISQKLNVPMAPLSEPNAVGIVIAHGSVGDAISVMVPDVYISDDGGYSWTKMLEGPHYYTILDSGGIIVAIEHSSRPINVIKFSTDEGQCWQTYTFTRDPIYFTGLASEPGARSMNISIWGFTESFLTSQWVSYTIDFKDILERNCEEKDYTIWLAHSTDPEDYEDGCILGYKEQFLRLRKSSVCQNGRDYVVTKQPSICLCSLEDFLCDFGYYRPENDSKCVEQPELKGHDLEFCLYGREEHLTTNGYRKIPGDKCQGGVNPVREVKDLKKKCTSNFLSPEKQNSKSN
As to the kind of experiment: SPR; biotinylated KBP-103 on a streptavidin chip, soluble sortilin injected. The method, then:
Biotinylated Katana peptide was immobilized on a streptavidin sensor chip. A. Soluble sortilin was then injected over the immobilized peptide. The surface plasmon resonance signal was then monitored over time.
Surface plasmon resonance (SPR) was first used to investigate whether these peptides could be recognized by sortilin. For this approach, biotin was added on the C-terminal end of the Katana-Biopharma peptide during peptide synthesis. The biotinylated-peptide (KBP-103) was then immobilized on a streptavidin sensor chip using recommended procedures from the manufacturer. Increasing concentrations of a soluble form of sortilin was then injected over the sensor chip. Interactions between immobilized KBP-103 and the receptor sortilin was then monitored in real time. A representative interaction curve is shown in FIG. 1, and from the sensorgram curves the affinity constant as well as Ka and Kd were determined and are indicated in Table 2. Affinity constants (KD, […]) were extracted from various injections using the BIA evaluation software.
For orientation: SPR reads the build-up and loss of mass on a sensor chip optically.

Non-standard residues stand in square brackets, D forms with d. No end group written: not given here. *: point of attachment. curcumin = curcumin, a phytochemical attached to the lysine side chains; Biotin = O=C1N[C@H]2[C@H](CS[C@H]2CCCCC(=O)*)N1; Nle = CCCC[C@H](N)C(=O)O

One may read the Kd as the equilibrium constant for the complex coming apart. A high value points to lower affinity. The term koff denotes a measure of how fast the partners let go of each other. Low values mean a long-lived complex, high ones a short-lived complex. The term kon denotes the second-order rate constant of association. A higher kon goes with fast association.

In test [1], “Neurotensin (from UniProt P30990 151-163) (peptide)” registered a decrease of the late apoptosis induced by 2 uM KBA-201 in SKOV3 cells by 10 uM NT of 45.5%. The inhibition of KBC106 fluorescence intensity (RFU) in ES-2 cells by neurotensin (bar NT) [continued) C] in test [2] is 52%. This molecule also returned a decrease of the late apoptosis induced by 2 uM KBA-105 in SKOV3/Luc cells by 10 uM NT in test [3] of 47.5%.

In test [1], “Progranulin (from UniProt P28799 18-593) (ligand)” showed a decrease of the late apoptosis induced by 2 uM KBA-201 in SKOV3 cells by 1.2 nM progranulin of 55%. Besides, the inhibition of KBC106 fluorescence intensity (RFU) in ES-2 cells by progranulin [continued) C] in test [2] is 81.5%. For the same molecule, the inhibition of KBB106 accumulation (% of control) in ovarian cancer cells by progranulin in test [4] is 52%.

B1: KBC-106 (2:1): Acetyl-GVRAK(curcumin)AGVRN(Nle)FK(curcumin)SESY (peptide)
peptide: Ac-GVRAK(curcumin)AGVRN[Nle]FK(curcumin)SESY
B1: in test [5], the “relative fluorescence (RFU) of ES-2 cells after KBC106 against unconjugated curcumin (live imaging)” value amounted to 2.3 fold.

B2: KBP-103: IKLSGGVQAKAGVINMFKSESYK(Biotin) (peptide)
peptide: IKLSGGVQAKAGVINMFKSESYK(Biotin)
notes: Immobilised on a streptavidin sensor chip in the SPR assay; also called biotinylated-peptide; Katana peptide
In the test with soluble form of sortilin, B2 came in with a Kd of 25.5 nM, a koff of 0.0174 s⁻¹ and an association rate constant (kon) of 683000 M⁻¹ s⁻¹.
